This is an account of results in article PMC11606422, “MdWRKY31‐MdNAC7 regulatory network: orchestrating fruit softening by modulating cell wall‐modifying enzyme MdXTH2 in response to ethylene signalling”.

The series concerns the target T1, MdNAC7 (Malus domestica, UniProt D9ZJA6 1-263).
T1 sequence: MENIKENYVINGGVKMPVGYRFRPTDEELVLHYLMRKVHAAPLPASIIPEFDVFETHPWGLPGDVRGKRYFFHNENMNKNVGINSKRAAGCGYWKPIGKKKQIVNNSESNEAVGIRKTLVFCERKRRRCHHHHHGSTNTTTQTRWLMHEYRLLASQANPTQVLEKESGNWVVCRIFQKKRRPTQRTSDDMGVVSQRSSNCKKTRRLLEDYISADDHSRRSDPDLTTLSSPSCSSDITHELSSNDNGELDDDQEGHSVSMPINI
Briefly: EMSA; LightShift Chemiluminescent EMSA kit, 10 uL, room temperature 30 min, 6% polyacrylamide gel in 0.5x TBE; salt and pH not stated. The conditions noted are these: protein: recombinant; chain copies: 2; label: biotin. On the technique in general: In EMSA bound probe runs differently from free probe, usually more slowly.

B1: MdXTH2 promoter probe for MdNAC7 (dsDNA)
DNA 1: GTAGTACACCATGTGTTATTAT
DNA 2: ATAATAACACATGGTGTACTAC
As for B1, the binding result is listed as “no binding”.
